Measurements from patent publication US20250066745A1, “MUTANTS AND USE THEREOF” (BGI SHENZHEN, priority 2021, published 2025).
Where a chain is given by its changes, count along the chain named. In names and notes the source's numbering stands.

B1: F26R N27D V29D A30G A32D S33N T37A L40P: Gaussia luciferase mutant (protein)
chain: MGVKVLFALICIAVAEAKPTENNEDRDIDGVDNNFAATDPDADRGKLPGKKLPLEVLKEMEANARKAGCTRGCLICLSHIKCTPKMKKFIPGRCHTYEGDKESAQGGIGEAIVDIPEIPGFKDLEPMEQFIAQVDLCVDCTTGCLKGLANVQCSDLLKKWLPQRCATFASKIQGQVDKIKGAGGD
modifications: SIGNAL (1)..(17)
notes: Gaussia luciferase mutant
B2: F26L N27D V29D A30G S33N A36I T37D L40R: Gaussia luciferase mutant (protein)
chain: B1 chain with R26L, D32A, A36I, A37D, P40R
modifications: SIGNAL (1)..(17)
notes: Gaussia luciferase mutant
B3: F26Y N27Y V29A A30G S33V A36V T37S L40G: Gaussia luciferase mutant (protein)
chain: B1 chain with R26Y, D27Y, D29A, D32A, N33V, A36V, A37S, P40G
modifications: SIGNAL (1)..(17)
notes: Gaussia luciferase mutant
B4: F26R V29E A30G V31L A36D T37E L40S K159: Gaussia luciferase mutant (protein)
chain: B1 chain with D27N, D29E, V31L, D32A, N33S, A36D, A37E, P40S
B5: F26L N27D V29P A30G V31I A32G S33A A36T T37C L40E I112T: Gaussia luciferase mutant (protein)
chain: B1 chain with R26L, D29P, V31I, D32G, N33A, A36T, A37C, P40E, I112T
modifications: SIGNAL (1)..(17)
notes: Gaussia luciferase mutant
B6: F26R N27D V29E A30G V31I A32D S33N A36N T37A L40R: Gaussia luciferase mutant (protein)
chain: B1 chain with D29E, V31I, A36N, P40R
modifications: SIGNAL (1)..(17)
notes: Gaussia luciferase mutant
B7: F26R N27Y V29E A30G A32D S33R A36G T37M L40P: Gaussia luciferase mutant (protein)
chain: B1 chain with D27Y, D29E, N33R, A36G, A37M
modifications: SIGNAL (1)..(17)
notes: Gaussia luciferase mutant
B8: F26I N27D V29S A30G V31L A32V S33D A36V T37E L40G: Gaussia luciferase mutant (protein)
chain: B1 chain with R26I, D29S, V31L, D32V, N33D, A36V, A37E, P40G
modifications: SIGNAL (1)..(17)
notes: Gaussia luciferase mutant
B9: F26L N27D A30D V31L A32V S33N A36N T37A L40S: Gaussia luciferase mutant (protein)
chain: B1 chain with R26L, D29V, G30D, V31L, D32V, A36N, P40S
modifications: SIGNAL (1)..(17)
notes: Gaussia luciferase mutant
B10: A30G V31I A32V S33G A36N T37D L40R: Gaussia luciferase mutant (protein)
chain: B1 chain with R26F, D27N, D29V, V31I, D32V, N33G, A36N, A37D, P40R
modifications: SIGNAL (1)..(17)
notes: Gaussia luciferase mutant
B11: F26I N27H V29G A32G S33D A36G T37L L40I: Gaussia luciferase mutant (protein)
chain: B1 chain with R26I, D27H, D29G, G30A, D32G, N33D, A36G, A37L, P40I
modifications: SIGNAL (1)..(17)
notes: Gaussia luciferase mutant
B12: F26T N27D V29P A30G V31I A32G S33I A36I T37L L40I: Gaussia luciferase mutant (protein)
chain: B1 chain with R26T, D29P, V31I, D32G, N33I, A36I, A37L, P40I
modifications: SIGNAL (1)..(17)
notes: Gaussia luciferase mutant
B13: F26L N27D V29A V31L A32D S33N T37E L40T: Gaussia luciferase mutant (protein)
chain: B1 chain with R26L, D29A, G30A, V31L, A37E, P40T
modifications: SIGNAL (1)..(17)
notes: Gaussia luciferase mutant
B14: F26S N27Y V29C A32G S33E A36Q T37G L40T: Gaussia luciferase mutant (protein)
chain: B1 chain with R26S, D27Y, D29C, G30A, D32G, N33E, A36Q, A37G, P40T
modifications: SIGNAL (1)..(17)
notes: Gaussia luciferase mutant
B15: A17V H79K P84A E102D S103T E110P L124M: Gaussia luciferase mutant (protein)
chain: MGVKVLFALICIAVAEVKPTENNEDFNIVAVASNFATTDLDADRGKLPGKKLPLEVLKEMEANARKAGCTRGCLICLSKIKCTAKMKKFIPGRCHTYEGDKDTAQGGIGPAIVDIPEIPGFKDMEPMEQFIAQVDLCVDCTTGCLKGLANVQCSDLLKKWLPQRCATFASKIQGQVDKIKGAGGD
modifications: SIGNAL (1)..(17)
notes: Gaussia luciferase mutant
B16: F26V N27Y V29N A30D V31D D32L S33R A36R T37W L40Y K180R: Gaussia luciferase mutant (protein)
chain: MGVKVLFALICIAVAEAKPTENNEDVYINDDLRNFRWTDYDADRGKLPGKKLPLEVLKEMEANARKAGCTRGCLICLSHIKCTPKMKKFIPGRCHTYEGDKESAQGGIGEAIVDIPEIPGFKDLEPMEQFIAQVDLCVDCTTGCLKGLANVQCSDLLKKWLPQRCATFASKIQGQVDKIRGAGGD
modifications: SIGNAL (1)..(17)
notes: Gaussia luciferase mutant
B17: F26I N27D V29D A30G A32E S33G A36T L40S del117-119 D139H: Gaussia luciferase mutant (protein)
chain: MGVKVLFALICIAVAEAKPTENNEDIDIDGVEGNFTTTDSDADRGKLPGKKLPLEVLKEMEANARKAGCTRGCLICLSHIKCTPKMKKFIPGRCHTYEGDKESAQGGIGEAIVDIPGFKDLEPMEQFIAQVDLCVHCTTGCLKGLANVQCSDLLKKWLPQRCATFASKIQGQVDKIKGAGGD
modifications: SIGNAL (1)..(17)
notes: Gaussia luciferase mutant

Test: Luminescence activity assay of purified Gaussia luciferase mutants on coelenterazine
Format: biochemical
Set-up: key to Activity of mutant relative to wild-type Gaussia luciferase without the signal peptide: ratio of mutant luminescence intensity to wild-type Gaussia luciferase
Conditions: Substrate CTZ (Table 16)
Outline: (§1)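 Readout: luminescence intensity, as ratio to signal-peptide-free wild-type enzyme. Enzyme 1 μg/mL, substrate 100 μM stock, 10 μL + 90 μL; buffer 50 mM Tris-HCl pH 8.0, 100 mM NaCl, 0.1% Tween-20.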

Row | Activity of mutant relative to wild-type Gaussia luciferase without the signal peptide | Molecule
1 | 0.031 | B1
2 | 0.726 | B2
3 | 0.219 | B3
4 | 0.000 | B4
5 | 0.001 | B5
6 | 0.053 | B6
7 | 0.152 | B7
8 | 0.788 | B8
9 | 0.799 | B9
10 | 0.138 | B10
11 | 0.055 | B11
12 | 0.231 | B12
13 | 0.000 | B13
14 | 0.119 | B14
15 | 0.198 | B15
16 | 0.072 | B16
17 | 0.043 | B17

Test: Luminescence activity assay of purified Gaussia luciferase mutants on coelenterazine derivative ZS2
Format: biochemical
Set-up: key to Activity of mutant relative to wild-type Gaussia luciferase without the signal peptide: ratio of mutant luminescence intensity to wild-type Gaussia luciferase
Conditions: Substrate ZS2 (Table 16)
Outline: as §1

Row | Activity of mutant relative to wild-type Gaussia luciferase without the signal peptide | Molecule
18 | 0.031 | B1
19 | 1.989 | B2
20 | 0.177 | B3
21 | 0.001 | B4
22 | 0.395 | B5
23 | 0.044 | B6
24 | 0.147 | B7
25 | 2.094 | B8
26 | 1.802 | B9
27 | 0.116 | B10
28 | 0.479 | B11
29 | 0.224 | B12
30 | 0.191 | B13
31 | 0.126 | B14
32 | 0.082 | B15
33 | 0.063 | B16
34 | 0.010 | B17

Test: Luminescence activity assay of purified Gaussia luciferase mutants on fluoro-coelenterazine
Format: biochemical
Set-up: key to Activity of mutant relative to wild-type Gaussia luciferase without the signal peptide: ratio of mutant luminescence intensity to wild-type Gaussia luciferase
Conditions: Substrate f-CTZ (Table 16)
Protocol: In this Example, the protein concentration was determined with a BCA quantitative kit (Thermo Scientific™ Pierce™ BCA Protein Assay Kit) accurately. The purified luciferase obtained in Example 5 was diluted with diluent (50 mM Tris-HCl, pH 8.0, 100 mM NaCl, 0.1% (v/v) Tween-20) to 1 μg/mL. The diluted luciferase, taken for 10 μL, was moved into a black 96-well plate, then added with 90 μL of the substrates coelenterazine, fluoro-coelenterazine or coelenterazine derivative ZS2 (purchased from Biolab) which was diluted into 100 μM with the same diluent, and the luminescence intensity of the plate was read with a self-luminescence module of a microplate reader. The mutation site of the mutant, the measured luminescence intensity, the ratio of luminescence intensities of the advantageous mutants to the wild-type Gaussia luciferase without the signal peptide having the sequence shown in SEQ ID NO: 3 are shown in Table 15. The results of catalytic activity assay of the advantageous mutants relative to the wild-type Gaussia luciferase without the signal peptide having the sequence shown in SEQ ID NO: 3 on substrate coelenterazine are shown in FIG. 6. […] The results of catalytic activity assay of the advantageous mutants relative to the wild-type Gaussia luciferase without the signal peptide having the sequence shown in SEQ ID NO: 3 on substrate fluoro-coelenterazine are shown in FIG. 7.
The new mutant library constructed in Example 7 was screened and tested for substrate specificity. Expression and purification schemes were the same as that in Example 5, and the activity assay scheme was the same as that in Example 6. The respective catalytic activities of combinatorial mutants on coelenterazine, fluoro-coelenterazine or coelenterazine derivative ZS2, and coelenterazine derivative ZS26 (purchased from BIOLAB) were assayed, and comparisons among the substrate specificities of the combinatorial mutants were based on the ratios of catalytic activities on two corresponding substrates.

Row | Activity of mutant relative to wild-type Gaussia luciferase without the signal peptide | Molecule
35 | 0.049 | B1
36 | 0.192 | B3
37 | 0.009 | B4
38 | 0.067 | B6
39 | 0.172 | B7
40 | 0.615 | B10
41 | 0.210 | B12
42 | 0.143 | B14
43 | 0.763 | B15
44 | 0.065 | B16
